US8962795B2, “Factor H binding peptides and uses thereof” (The Trustees of the University of Pennsylvania, priority 2010, dated 2015)
Positions of bridges follow the written chain, without caps; N, C: chain ends. No end group written: not given here.

What was measured:
factor H [1] = molecular target: T1, factor H (Homo sapiens, UniProt P08603); assay: Monoclonal phage ELISA, binding of phage clones to factor H (binding area localisation); settings: SCR5-18 attributed in absence of stable binding to N- or C-terminus of factor H
T1 construct: Human factor H was purified from normal human serum (NHS) by 5-12% PEG precipitation; from tissue; host or cells: normal human serum (NHS)
T1 sequence (P08603 19-1231): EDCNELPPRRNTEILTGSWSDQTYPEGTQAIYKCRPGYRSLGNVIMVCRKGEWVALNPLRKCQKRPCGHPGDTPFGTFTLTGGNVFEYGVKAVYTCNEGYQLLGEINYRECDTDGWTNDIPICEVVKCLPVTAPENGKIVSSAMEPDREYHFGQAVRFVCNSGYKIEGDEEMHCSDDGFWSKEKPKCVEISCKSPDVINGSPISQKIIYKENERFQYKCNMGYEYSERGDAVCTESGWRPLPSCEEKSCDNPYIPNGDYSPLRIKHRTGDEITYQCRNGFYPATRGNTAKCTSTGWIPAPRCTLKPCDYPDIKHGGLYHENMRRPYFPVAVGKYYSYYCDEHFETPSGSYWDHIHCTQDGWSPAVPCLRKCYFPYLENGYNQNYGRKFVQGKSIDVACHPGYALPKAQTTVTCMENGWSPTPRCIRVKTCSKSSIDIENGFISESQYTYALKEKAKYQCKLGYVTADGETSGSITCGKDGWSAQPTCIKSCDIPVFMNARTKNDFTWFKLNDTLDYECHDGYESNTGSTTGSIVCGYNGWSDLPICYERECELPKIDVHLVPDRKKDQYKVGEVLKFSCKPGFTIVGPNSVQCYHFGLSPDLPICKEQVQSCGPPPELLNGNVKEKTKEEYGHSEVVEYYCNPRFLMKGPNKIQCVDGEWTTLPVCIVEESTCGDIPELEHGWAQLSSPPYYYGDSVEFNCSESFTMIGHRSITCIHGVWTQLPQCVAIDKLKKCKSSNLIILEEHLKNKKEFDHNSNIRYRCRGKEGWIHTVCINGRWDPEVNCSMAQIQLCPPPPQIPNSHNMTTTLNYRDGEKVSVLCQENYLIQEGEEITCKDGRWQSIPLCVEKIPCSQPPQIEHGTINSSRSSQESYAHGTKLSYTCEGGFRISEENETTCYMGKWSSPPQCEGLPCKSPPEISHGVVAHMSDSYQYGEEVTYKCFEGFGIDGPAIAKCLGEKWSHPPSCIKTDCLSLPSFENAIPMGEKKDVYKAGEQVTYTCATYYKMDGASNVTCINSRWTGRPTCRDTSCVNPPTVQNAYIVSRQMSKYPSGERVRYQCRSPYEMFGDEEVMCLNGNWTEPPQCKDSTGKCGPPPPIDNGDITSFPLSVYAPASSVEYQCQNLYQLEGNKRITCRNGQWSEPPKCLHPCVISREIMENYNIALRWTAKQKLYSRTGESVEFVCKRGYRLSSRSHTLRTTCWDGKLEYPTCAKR
Experimental: (§1) Microtiter wells were coated overnight with either factor H or BSA at 5 μg/mL in PBS at 4° C., and saturated with 5% non-fat milk in PBST for 1 h. Completely separated individual phage plaques from the third round of screening were picked and amplified. Phage particles of each amplified individual phage plaque were added to both factor H- and BSA-coated wells in parallel and allowed to bind at RT for 1 h. After six washes with PBST, bound phages were detected with HRP-conjugated anti-M13 monoclonal antibody (GE Healthcare), using ABTS (Roche) for color development. Clones that bound to factor H but not to BSA were considered positive; single-stranded DNA from positive clones was prepared using an M13 kit (Qiagen, Valencia, Calif.) and sequenced by the DNA sequencing facility of the University of Pennsylvania.
(§2) To localize the binding sites on factor H of the positive clones, we further tested each clone by monoclonal phage ELISA for binding to factor H and its N- and C-terminal fragments, i.e. fH1-4 and fH19-20.

factor H [2] = molecular target: T1, factor H; assay: Peptide-phage competition assay; format: binding; settings: serially diluted synthetic peptide; coated factor H
Experimental: (§3) Two approaches were used to evaluate the binding of synthetic peptides to factor H. First, we used peptide-phage competition assays, in which serially diluted synthetic peptide was added to its parent phage at the step of phage binding to coated factor H. The rest of the steps were performed as described above for monoclonal phage ELISA. Second, ELISA experiments were used to evaluate the binding of factor H to the immobilized peptide. Microtiter plates were coated with streptavidin (New England Biolabs) at 10 μg/ml in PBS at 4° C. overnight, and saturated with 2% BSA in PBS. After washing, either the biotinylated 5C6 peptide or a biotinylated control peptide (linear compstatin; IAVVQDWGHHRAT; SEQ ID NO:10) was added at 10 μg/ml and allowed to bind at RT for 30 min. The wells were washed again, and factor H serially diluted in PBS, starting with 2.5 μg/ml, was added. After 1 h of binding, the plates were washed, and bound factor H was detected with goat anti-human factor H polyclonal antibody (Quidel, San Diego, Calif.), followed by HRP-conjugated rabbit anti-goat IgG (Bio-Rad). […]

factor H [3] = molecular target: T1, factor H; assay: ELISA, binding of purified factor H to immobilized biotinylated peptide; settings: biotinylated peptide captured by coated streptavidin, polyclonal antibody detection
Experimental: as §3

factor H [4] = molecular target: T1, factor H; assay: SPR, factor H on surface-bound peptide; format: binding; settings: for SPR binding of factor H to immobilized peptide: biotinylated peptide on streptavidin chip, factor H 100 nM
Experimental: (§4) The binding of factor H with surface-bound 5C6 peptide was further characterized using surface plasmon resonance (SPR) on a ProteOn XPR36 instrument (Bio-Rad Inc., Hercules, Calif.) using PBST (10 mM sodium phosphate, 150 mM NaCl, 0.005% Tween 20) as running buffer. Streptavidin (50 μg/ml in 10 mM sodium acetate pH 5.0) was immobilized on a GLC sensor chip at 30° C. using amine coupling. The biotinylated 5C6 peptide and a biotinylated control peptide (linear compstatin; see above) were captured on separate streptavidin-coated channels to a density of ˜200 resonance units (RU). Purified factor H (Complement Technologies, Tyler, Tex.) or recombinant fragments fH1-4 and fH19-20 were injected at a concentration of 100 nM for 2 rain at a flow rate of 25 μl/min with a dissociation phase of 6 min. A single injection of 2 M NaCl for 30 s was used to regenerate the surface between injections. Data were processed using ProteOn Manager software by subtracting the signals from interspots and a blank streptavidin channel. In order to estimate the apparent binding affinity, a twofold dilution series of factor H (0.24-500 nM) was injected using the same protocol and fitted to various kinetic models using ProteOn Manager. In order to exclude sensor chip matrix-specific surface binding, the same experiment was repeated on Biacore 3000 instrument (GE Healthcare) using a SA chip under the same conditions as described above.

fH19-20 [5] = molecular target: T2, fH19-20 (Homo sapiens, UniProt P08603); assay: SPR, fH19-20 fragment on surface-bound peptide; format: binding; settings: fragment 100 nM
T2 sequence (P08603 1107-1231): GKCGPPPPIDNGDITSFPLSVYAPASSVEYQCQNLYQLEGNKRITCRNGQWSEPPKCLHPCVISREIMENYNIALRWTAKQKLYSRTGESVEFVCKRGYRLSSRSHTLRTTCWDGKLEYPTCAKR
Experimental: as §4, with “In order to exclude sensor chip matrix-specific surface binding, the same experiment was repeated on Biacore 3000 instrument (GE Healthcare) using a SA chip under the same conditions as described above.” left out

fH1-4 [6] = molecular target: T3, fH1-4 (Homo sapiens, UniProt P08603); assay: SPR, fH1-4 fragment on surface-bound peptide; format: binding; settings: fragment 100 nM
T3 construct: made in house
T3 sequence (P08603 19-264): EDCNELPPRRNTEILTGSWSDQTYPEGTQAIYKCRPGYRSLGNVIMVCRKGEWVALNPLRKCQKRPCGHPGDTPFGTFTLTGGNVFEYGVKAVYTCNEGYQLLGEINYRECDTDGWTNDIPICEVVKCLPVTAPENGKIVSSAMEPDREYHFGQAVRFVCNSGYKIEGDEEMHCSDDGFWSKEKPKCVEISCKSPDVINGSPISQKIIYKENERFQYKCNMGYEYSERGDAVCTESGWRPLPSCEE
Experimental: as §4, with “In order to exclude sensor chip matrix-specific surface binding, the same experiment was repeated on Biacore 3000 instrument (GE Healthcare) using a SA chip under the same conditions as described above.” left out

[7] = molecular target: T4, factor H cofactor activity (Homo sapiens, UniProt P08603); assay: Factor H cofactor activity assay (factor I-mediated cleavage of C3b); format: biochemical; settings: for effect on cofactor assay: peptide expressed as fusion protein with phage PIII domain, not shown
T4 construct: Human factor H was purified from normal human serum (NHS) by 5-12% PEG precipitation; from tissue; host or cells: normal human serum (factor H, C3); factor I from unnamed 'other sources'
T4 sequence (P08603 19-1231): as the sequence (P08603 19-1231) above
Experimental: (§5) To determine whether the binding of the 5C6 peptide interferes with the regulatory activity and cell-surface binding capacity of factor H, we performed factor H cofactor activity assays using purified C3b, factor H and factor I, as well as hemolytic assays, both which were performed in the presence of different concentrations of the 5C6 peptide. The hemolysis assay experiments were repeated at least three times using lepirudin plasma from different blood donors.
The factor H cofactor activity assay was performed according to known methods. In brief, 1.14 μM C3b, 16 nM factor I, and 72 nM factor H were incubated with various amounts of the 5C6 peptide (0.4, 4, and 40 μM, respectively) in PBS at 37° C. for 1 hr in a final volume of 20 μl. The reaction was terminated by adding SDS-PAGE loading buffer, and the samples were analyzed by 8% SDS-PAGE under reducing conditions, followed by Coomassie blue staining.

Sheep erythrocytes = assay: Hemolytic assay (factor H cell-surface binding); format: cell-based; settings: for effect on hemolytic assay: peptide expressed as fusion protein with phage PIII domain, not shown
Experimental: as §5
Hemolytic assays were performed to determine whether the peptide altered factor H cell-surface binding activity. Sheep erythrocytes (Cocalico Biological Inc., Reamstown, Pa.) were washed with VBS containing 5 mM Mg^2+/EGTA (VBS-Mg^2+/EGTA) until the supernatant was clear. The assay was titrated by lysing erythrocytes in serial dilution with water in a final volume of 300 μl. The OD405 of the supernatants was measured, and the amount of the erythrocytes yielding an OD405 of ˜1 was used in the assay. Serial dilutions of the 5C6 peptide or monoclonal antibody MH10 (which binds fH19-20 and inhibits factor H cell surface binding) with the determined amount of sheep erythrocytes and lepirudin plasma diluted 1:10 in VBS-Mg^2+/EGTA in a final volume of 300 μL were incubated at 37° C. for 1 h in a shaking water bath. After centrifugation the OD405 of the supernatants was measured, and the OD value was used to represent the cell lysis.

[8] = test system: AP complement activation (surface-bound activated C3); assay: Inhibition of biomaterial-induced AP activation by immobilized peptide (surface-bound activated C3); format: biochemical, human
Experimental: Polystyrene microtiter wells, which served as a model biomaterial, were coated overnight with streptavidin (10 μg/ml in PBS) at 4° C. After washing, the biotinylated 5C6 peptide and the control peptide (10 μg/ml in PBS) were added to the wells and incubated at RT for 30 min. The wells were again washed and serially diluted lepirudin plasma in VBS-Mg^2+/EGTA was added and incubated at RT for 1 h. In some experiments intended to monitor the inhibition of AP by immobilized peptide on a HSA monolayer, the washed wells were saturated with 2% HSA in PBS for 1 h, prior to the addition of plasma. In both series of experiments, the wells were then washed, and the binding sites were saturated with 2% BSA in PBS for 1 h. Bound fragments of activated C3 were detected with an HRP-conjugated goat anti-human C3 polyclonal antibody (Cappel, Aurora, Ohio). In parallel, captured factor H from serum was detected with goat anti-human factor H polyclonal antibody followed by HRP-conjugated rabbit anti-goat IgG in duplicate wells as described above.

factor H [9] = molecular target: T1, factor H; assay: Capture of factor H from plasma by immobilized peptide; format: binding; settings: vs control peptide
Experimental: as §3, with “After washing, either the biotinylated 5C6 peptide or a biotinylated control peptide (linear compstatin; IAVVQDWGHHRAT; SEQ ID NO:10) was added at 10 μg/ml and allowed to bind at RT for 30 min. The wells were washed again, and factor H serially diluted in PBS, starting with 2.5 μg/ml, was added.” left out
Polystyrene microtiter wells, which served as a model biomaterial, were coated overnight with streptavidin (10 μg/ml in PBS) at 4° C. […] Bound fragments of activated C3 were detected with an HRP-conjugated goat anti-human C3 polyclonal antibody (Cappel, Aurora, Ohio). In parallel, captured factor H from serum was detected with goat anti-human factor H polyclonal antibody followed by HRP-conjugated rabbit anti-goat IgG in duplicate wells as described above.

factor H [10] = molecular target: T1, factor H; assay: Factor H concentration in plasma after incubation on peptide-coated surface; settings: data not shown
fH19-20 [11] = molecular target: T2, fH19-20; assay: Monoclonal phage ELISA, binding of phage clones to fH19-20
Experimental: as §1, §2

fH1-4 [12] = molecular target: T3, fH1-4; assay: Monoclonal phage ELISA, binding of phage clones to fH1-4
Experimental: as §1, §2

## ASSSRCTYDHWCSH (disulfide 6-12 (inferred); not fully specified; also: biotinylated) [5C6, used biotinylated when immobilized]
Factor H [1]
  Binding area on factor H: SCR5-18
Factor H [2]
  inhibition of binding of the other class 3 phages to factor H by 5C6 peptide: strongly inhibited
  inhibition of parent phage binding to factor H by synthetic peptide: inhibited its parent phages from binding to factor H in a dose-dependent manner
Factor H [3]
  binding signal for factor H on immobilized peptide (ELISA): strong binding signal
Factor H [4]
  SPR binding of factor H to immobilized peptide: high binding activity and stability
Factor H [4]; dilution series of factor H 0.24-500 nM, deviation from single-site model, apparent
  SPR apparent binding affinity for factor H: concentration-dependent binding with high affinity
fH19-20 [5]
  SPR binding of fH19-20 fragment to immobilized peptide: a significant SPR response could also be detected for the fH19-20 fragment, this interaction was not stable
fH1-4 [6]
  SPR binding of fH1-4 fragment to immobilized peptide: no binding
[7]
  effect on cofactor assay: no such effect
[7]; synthetic peptide up to 40 μM, 550-fold excess over factor H (72 nM)
  effect on factor H cofactor activity: did not inhibit
Sheep erythrocytes; 10-fold diluted lepirudin plasma, peptide up to 40 μM
  lysis of sheep erythrocytes: No lysis
Sheep erythrocytes
  effect on hemolytic assay: no such effect
[8]; polystyrene with HSA monolayer, lepirudin plasma in VBS-Mg2+/EGTA, vs control peptide
  complement activation on peptide-immobilized surface: substantially inhibited
[8]; polystyrene without HSA pre-saturation, plasma
  complement activation on peptide-immobilized surface: strongly inhibited
Factor H [9]; polystyrene with HSA monolayer
  factor H capture from plasma by immobilized peptide: pronounced factor H capture
Factor H [9]; polystyrene without HSA pre-saturation
  factor H capture from plasma by immobilized peptide: captured more factor H
Factor H [10]
  factor H concentration in plasma incubated on peptide-coated surface: no significant decline

## ASSGMCFTKKTVLC [4A1]
Factor H [1]
  Binding area on factor H: SCR19-20
fH19-20 [11]
  binding of phage clone to fH19-20: bind to the C-terminal two SCR of factor H
Sheep erythrocytes
  effect on hemolytic assay: affected

## ASSNVCSYSYWCAH [5G11]
Factor H [1]
  Binding area on factor H: SCR5-18

## ASSFKCDYSHWCLH [5E10]
Factor H [1]
  Binding area on factor H: SCR5-18

## ASSYDVGYSHDCRF [5-2C6]
Factor H [1]
  Binding area on factor H: SCR1-4
fH1-4 [12]
  binding of phage clone to fH1-4: bound to the N-terminal regulatory region of factor H
[7]
  effect on cofactor assay: affected

## ASSCMYSYWCTH [5-2B2]
Factor H [1]
  Binding area on factor H: SCR5-18

## ASPSWCSYSHWCRH [5D1]
Factor H [1]
  Binding area on factor H: SCR5-18

## IAVVQDWGHHRAT [Control Peptide (LC), reference compound]
Factor H [3]
  binding signal for factor H on immobilized peptide (ELISA): not
Factor H [4]
  SPR binding of factor H to immobilized peptide: no significant binding
